# According to paper PMC5053343, “Improvement of free fatty acid production using a mutant acyl-CoA thioesterase I with high specific activity in Escherichia coli” (Biotechnology for Biofuels, 2016):
# Where a chain is given by its changes, count along the chain named. In names and notes the source's numbering stands.
# B1: 'TesA (leader sequence-deleted acyl-CoA thioesterase I) (Escherichia coli K-12) (protein)
# chain: ADTLLILGDSLSAGYRMSASAAWPALLNDKWQSKTSVVNASISGDTSQQGLARLPALLKQHQPRWVLVELGGNDGLRGFQPQQTEQTLRQILQDVKAANAEPLLMQIRLPANYGRRYNEAFSAIYPKLAKEFDVPLLPFFMEEVYLKPQWMQDDGIHPNRDAQPFIADWMAKQLQPLVNHDS
# notes: signal peptide removed (leaderless), C-terminal (His)6 tag from pET28a (NcoI/XhoI), kept; expressed in E. coli BL21(DE3), Ni-NTA purified
# B2: 'TesA (leader sequence-deleted acyl-CoA thioesterase I) (Escherichia coli K-12; R90C) (protein)
# chain: B1 chain with R64C
# notes: as for B1
# Substrate: CCCCCCCCCCCCCCCC(=O)SCCNC(=O)CCNC(=O)[C@H](O)C(C)(C)COP(=O)(O)OP(=O)(O)OC[C@H]1O[C@@H](n2cnc3c(N)ncnc32)[C@H](O)[C@@H]1OP(=O)(O)O
# Experiment: purified protein
# Format: biochemical, Escherichia coli
# Settings: 50 mM potassium phosphate pH 7.0, 80 ug/mL BSA, 0.1 mM DTNB, 3.1 x 10^-5 mM enzyme, 0-24 uM palmitoyl-CoA
protein,measurement,value
B1,Km,6.69 µM
same,kcat,20.75 s⁻¹
B2,Km,4.00 µM
same,kcat,27.12 s⁻¹
